test system: Escherichia coli TOP10; test: shrunken log2 fold change of peptide-encoding DNA abundance (4.5 h post-induction vs induction); higher = less antimicrobial activity (less host growth inhibition); conditions: time post-induction: 4.5 h; library: site-saturation at positions 5, 18, 19, 20
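Also: peptides expressed intracellularly from a pBAD plasmid library in pooled LB shake-flask culture, induced with 0.3% L-arabinose, DNA abundance read by NGS, three biological replicates, DESeq2 with apeglm shrinkage.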

Row | Sequence | shrunken log2 fold change
1 | RRIRTRPPRLPRPRPRPVCVPRP | 0.182
2 | RRIRTRPPRLPRPRPRPVCWPRP | 0.304
3 | RRIRTRPPRLPRPRPRPVENPRP | -0.146
4 | RRIRTRPPRLPRPRPRPVFEPRP | -0.289
5 | RRIRTRPPRLPRPRPRPVFMPRP | -0.25
6 | RRIRTRPPRLPRPRPRPVFVPRP | 0.0253
7 | RRIRTRPPRLPRPRPRPVFWPRP | 0.386
8 | RRIRTRPPRLPRPRPRPVGGPRP | 0.837
9 | RRIRTRPPRLPRPRPRPVGLPRP | -0.00734
10 | RRIRTRPPRLPRPRPRPVGWPRP | 0.753
11 | RRIRTRPPRLPRPRPRPVHPPRP | -0.579
12 | RRIRTRPPRLPRPRPRPVIWPRP | 0.128
13 | RRIRTRPPRLPRPRPRPVLYPRP | -0.365
14 | RRIRTRPPRLPRPRPRPVMGPRP | -0.0279
15 | RRIRTRPPRLPRPRPRPVMLPRP | -0.157
16 | RRIRTRPPRLPRPRPRPVNQPRP | 0.0163
17 | RRIRTRPPRLPRPRPRPVRDPRP | 0.543
18 | RRIRTRPPRLPRPRPRPVRSPRP | 0.641
19 | RRIRTRPPRLPRPRPRPVTFPRP | -0.0266
20 | RRIRTRPPRLPRPRPRPVTGPRP | -0.083
21 | RRIRTRPPRLPRPRPRPVTPPRP | 0.184
22 | RRIRTRPPRLPRPRPRPVTYPRP | 0.0141
23 | RRIRTRPPRLPRPRPRPVVDPRP | 0.452
24 | RRIRTRPPRLPRPRPRPVWDPRP | 0.13
25 | RRIRTRPPRLPRPRPRPWCFPRP | -0.046

Row | Sequence | shrunken log2 fold change
26 | RRIRTRPPRLPRPRPRPWDLPRP | 0.12
27 | RRIRTRPPRLPRPRPRPWFNPRP | -0.471
28 | RRIRTRPPRLPRPRPRPWFQPRP | -0.195
29 | RRIRTRPPRLPRPRPRPWFVPRP | -0.243
30 | RRIRTRPPRLPRPRPRPWGIPRP | -0.0774
31 | RRIRTRPPRLPRPRPRPWHQPRP | -0.0236
32 | RRIRTRPPRLPRPRPRPWIQPRP | -0.194
33 | RRIRTRPPRLPRPRPRPWKIPRP | -0.0703
34 | RRIRTRPPRLPRPRPRPWKVPRP | -0.00663
35 | RRIRTRPPRLPRPRPRPWLCPRP | 0.0607
36 | RRIRTRPPRLPRPRPRPWNEPRP | 0.00902
37 | RRIRTRPPRLPRPRPRPWNNPRP | -0.256
38 | RRIRTRPPRLPRPRPRPWNWPRP | 0.0309
39 | RRIRTRPPRLPRPRPRPWPYPRP | -0.157
40 | RRIRTRPPRLPRPRPRPWQEPRP | 0.0948
41 | RRIRTRPPRLPRPRPRPWQHPRP | -0.0511
42 | RRIRTRPPRLPRPRPRPWRTPRP | 0.112
43 | RRIRTRPPRLPRPRPRPWSSPRP | -0.241
44 | RRIRTRPPRLPRPRPRPWWEPRP | 0.00671
45 | RRIRTRPPRLPRPRPRPWWLPRP | 0.125
46 | RRIRTRPPRLPRPRPRPYAWPRP | -0.0721
47 | RRIRTRPPRLPRPRPRPYDRPRP | -0.221
48 | RRIRTRPPRLPRPRPRPYGNPRP | -0.0638
49 | RRIRTRPPRLPRPRPRPYHFPRP | -0.28
50 | RRIRTRPPRLPRPRPRPYICPRP | -0.143

Row | Sequence | shrunken log2 fold change
51 | RRIRTRPPRLPRPRPRPYKEPRP | -0.228
52 | RRIRTRPPRLPRPRPRPYLGPRP | -0.00172
53 | RRIRTRPPRLPRPRPRPYLMPRP | -0.601
54 | RRIRTRPPRLPRPRPRPYLVPRP | -0.489
55 | RRIRTRPPRLPRPRPRPYMRPRP | -0.48
56 | RRIRTRPPRLPRPRPRPYQAPRP | -0.206
57 | RRIRTRPPRLPRPRPRPYRGPRP | -0.519
58 | RRIRTRPPRLPRPRPRPYRNPRP | -0.21
59 | RRIRTRPPRLPRPRPRPYTAPRP | -0.389
60 | RRIRTRPPRLPRPRPRPYTHPRP | -0.338
61 | RRIRTRPPRLPRPRPRPYVEPRP | -1.12
62 | RRIRTRPPRLPRPRPRPYWLPRP | -0.486
63 | RRIRTRPPRLPRPRPRPYYCPRP | -0.249
64 | RRIRVRPPRLPRPRPRPACFPRP | 0.169
65 | RRIRVRPPRLPRPRPRPACLPRP | -0.444
66 | RRIRVRPPRLPRPRPRPADPPRP | 0.0239
67 | RRIRVRPPRLPRPRPRPAFKPRP | 0.086
68 | RRIRVRPPRLPRPRPRPAHLPRP | -0.0953
69 | RRIRVRPPRLPRPRPRPAKAPRP | 0.0673
70 | RRIRVRPPRLPRPRPRPALHPRP | 0.202
71 | RRIRVRPPRLPRPRPRPALLPRP | -0.211
72 | RRIRVRPPRLPRPRPRPANCPRP | 0.031
73 | RRIRVRPPRLPRPRPRPANIPRP | -0.156
74 | RRIRVRPPRLPRPRPRPAPTPRP | 0.638
75 | RRIRVRPPRLPRPRPRPAQHPRP | 0.151

Row | Sequence | shrunken log2 fold change
76 | RRIRVRPPRLPRPRPRPARNPRP | 0.414
77 | RRIRVRPPRLPRPRPRPARVPRP | 0.263
78 | RRIRVRPPRLPRPRPRPASEPRP | 0.0395
79 | RRIRVRPPRLPRPRPRPASLPRP | -0.372
80 | RRIRVRPPRLPRPRPRPASPPRP | 0.102
81 | RRIRVRPPRLPRPRPRPATEPRP | -0.0882
82 | RRIRVRPPRLPRPRPRPATRPRP | 0.383
83 | RRIRVRPPRLPRPRPRPATSPRP | -0.0495
84 | RRIRVRPPRLPRPRPRPAVIPRP | -0.0266
85 | RRIRVRPPRLPRPRPRPCCRPRP | 0.0482
86 | RRIRVRPPRLPRPRPRPCCWPRP | -0.087
87 | RRIRVRPPRLPRPRPRPCDIPRP | -0.149
88 | RRIRVRPPRLPRPRPRPCDKPRP | -0.323
89 | RRIRVRPPRLPRPRPRPCEAPRP | 0.0719
90 | RRIRVRPPRLPRPRPRPCECPRP | 0.00846
91 | RRIRVRPPRLPRPRPRPCENPRP | -0.0135
92 | RRIRVRPPRLPRPRPRPCEQPRP | 0.211
93 | RRIRVRPPRLPRPRPRPCFTPRP | -0.0879
94 | RRIRVRPPRLPRPRPRPCIKPRP | -0.592
95 | RRIRVRPPRLPRPRPRPCKYPRP | -0.725
96 | RRIRVRPPRLPRPRPRPCLWPRP | 0.0452
97 | RRIRVRPPRLPRPRPRPCMEPRP | -1
98 | RRIRVRPPRLPRPRPRPCMFPRP | -0.559
99 | RRIRVRPPRLPRPRPRPCMTPRP | 0.0668
100 | RRIRVRPPRLPRPRPRPCMWPRP | 0.0384

Row | Sequence | shrunken log2 fold change
101 | RRIRVRPPRLPRPRPRPCNFPRP | -0.0271
102 | RRIRVRPPRLPRPRPRPCRIPRP | -0.385
103 | RRIRVRPPRLPRPRPRPCRRPRP | -0.299
104 | RRIRVRPPRLPRPRPRPCSWPRP | -0.109
105 | RRIRVRPPRLPRPRPRPCVLPRP | -0.44
106 | RRIRVRPPRLPRPRPRPCYGPRP | -0.259
107 | RRIRVRPPRLPRPRPRPCYKPRP | -0.691
108 | RRIRVRPPRLPRPRPRPDAPPRP | 0.422
109 | RRIRVRPPRLPRPRPRPDCYPRP | -0.15
110 | RRIRVRPPRLPRPRPRPDIDPRP | -0.205
111 | RRIRVRPPRLPRPRPRPDKLPRP | -0.0511
112 | RRIRVRPPRLPRPRPRPDKPPRP | 0.028
113 | RRIRVRPPRLPRPRPRPDLDPRP | 0.156
114 | RRIRVRPPRLPRPRPRPDMCPRP | 0.0884
115 | RRIRVRPPRLPRPRPRPDMFPRP | 0.0441
116 | RRIRVRPPRLPRPRPRPDMNPRP | -0.548
117 | RRIRVRPPRLPRPRPRPDNYPRP | -0.222
118 | RRIRVRPPRLPRPRPRPDQYPRP | -0.234
119 | RRIRVRPPRLPRPRPRPDTGPRP | -0.00804
120 | RRIRVRPPRLPRPRPRPDTYPRP | -0.995
121 | RRIRVRPPRLPRPRPRPDWFPRP | -0.597
122 | RRIRVRPPRLPRPRPRPDWSPRP | -0.316
123 | RRIRVRPPRLPRPRPRPDYKPRP | 0.105
124 | RRIRVRPPRLPRPRPRPDYRPRP | -0.00433
125 | RRIRVRPPRLPRPRPRPDYWPRP | -0.449

Row | Sequence | shrunken log2 fold change
126 | RRIRVRPPRLPRPRPRPEAEPRP | 0.807
127 | RRIRVRPPRLPRPRPRPEDQPRP | 0.0356
128 | RRIRVRPPRLPRPRPRPEERPRP | -0.194
129 | RRIRVRPPRLPRPRPRPEFAPRP | 0.169
130 | RRIRVRPPRLPRPRPRPEFGPRP | 0.177
131 | RRIRVRPPRLPRPRPRPEFNPRP | 0.203
132 | RRIRVRPPRLPRPRPRPEHFPRP | 0.131
133 | RRIRVRPPRLPRPRPRPEIHPRP | -0.0841
134 | RRIRVRPPRLPRPRPRPEKEPRP | 0.0209
135 | RRIRVRPPRLPRPRPRPEKVPRP | 0.13
136 | RRIRVRPPRLPRPRPRPELVPRP | 0.14
137 | RRIRVRPPRLPRPRPRPEMCPRP | -0.0885
138 | RRIRVRPPRLPRPRPRPEMMPRP | 0.0629
139 | RRIRVRPPRLPRPRPRPENDPRP | -0.0879
140 | RRIRVRPPRLPRPRPRPENGPRP | -0.158
141 | RRIRVRPPRLPRPRPRPEPLPRP | 0.204
142 | RRIRVRPPRLPRPRPRPEPQPRP | 0.363
143 | RRIRVRPPRLPRPRPRPEQRPRP | 0.0562
144 | RRIRVRPPRLPRPRPRPEQTPRP | -0.0332
145 | RRIRVRPPRLPRPRPRPESAPRP | 0.522
146 | RRIRVRPPRLPRPRPRPETFPRP | -0.0527
147 | RRIRVRPPRLPRPRPRPEVDPRP | 0.296
148 | RRIRVRPPRLPRPRPRPEVVPRP | -0.0305
149 | RRIRVRPPRLPRPRPRPEVWPRP | 0.405
150 | RRIRVRPPRLPRPRPRPEWGPRP | 2.29

From the supplement of paper PMC9112550, “Optimization of the antimicrobial peptide Bac7 by deep mutational scanning” (BMC Biology, 2022)
